Consider one molecule from patent US20230011916A1, “METHODS OF CANCER TREATMENT USING ANTI-OX40 ANTIBODIES IN COMBINATION WITH PI3 KINASE DELTA INHIBITORS” (BEIGENE, LTD., priority 2019, published 2023).

The target in this assay is mouse OX40-His (Cat: ab221028, Abcam) (mouse) (UniProt P47741). Briefly: ELISA on coated mouse OX40-His.
mouse OX40-His (Cat: ab221028, Abcam) (mouse), sequence (P47741 20-211 limits assumed): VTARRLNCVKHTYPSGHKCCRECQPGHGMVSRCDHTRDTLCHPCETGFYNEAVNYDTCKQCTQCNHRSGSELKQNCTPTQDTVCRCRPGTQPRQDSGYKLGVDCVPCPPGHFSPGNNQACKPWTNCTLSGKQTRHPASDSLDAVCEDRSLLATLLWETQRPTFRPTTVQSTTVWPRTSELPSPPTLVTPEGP

B1: 1A7.gr1 (antibody, from another filing, V domains shown)
VH: EVQLVQSGAEVKKPGASVKVSCKASGYTFTDSYMSWVRQAPGQGLEWIGDMYPDNGDSSYNQKFRERVTITRDTSTSTAYLELSSLRSEDTAVYYCVLAPRWYFSVWGQGTLVTVSS
VL: DIQMTQSPSSLSASVGDRVTITCRASQDISNYLNWYQQKPGKAPKLLIYYTSRLRSGVPSRFSGSGSGTDFTLTISSLQPEDFATYYCQQGHTLPPTFGQGTKVEIK
With B1, the EC50 (in general, the concentration needed to bring the measured effect to its halfway point) turned out to be 0.11 µg/mL.
